Where a chain is given by its changes, count along the chain named.
B1: antibody No. 32 (fully human antibody, full IgG) (antibody, V domains shown)
VH: EVQLVQSGGGLIQPGGSLRLSCAASEFIVSSNYMTWVRQAPGKGLEWVSIIYPGGSTYYADSVKGRFTISRDNSKNTLYLRMNSLRAEDTAVYYCARDLPLTGTTLDYWGQGTLVTVSS
VL: not shown
B2: antibody No. 54 (fully human antibody, full IgG) (antibody, V domains shown)
VH: EVQLLESGGGLVQPGRSLRLSCAASGFNFDDYAMHWVRQAPGKGLEWVSGISWNSGTIGYADSVKGRFIISRDNAKNSLYLQMRSLKPEDTALYYCAKEELGPYSNRWYSSSDGMDVWGQGTTVTVSS
VL: ELVLTQPPSVSGAPGQRVTISCTGSSSNIGAGYDVHWYQQLPGTAPKLLIYGNSNRPSGVPDRFSGSKSGTSASLAITGLQAEDEADYYCQSYDSSLSGVVFGGGTKLTVL
B3: antibody No. 59 (fully human antibody, full IgG) (antibody, V domains shown)
VH: QVQLQESGPGLVKPSETLSLTCTVSGDSISGSSYYWGWIRQPPGKGLEWIGNIFYSGSTYYNPSLKSRVTISVDTPKNQFSLKLSSVTAADTAMYYCARGSRGYYDILTGYSTGGFDYWGQGTLVTVSS
VL: ELQMTQSPATLSVSPGEGATLSCRASQSVSSNLAWYQHKPGQAPRLLIYDASTRATGIPARFSGSGSGTEFTLTISSLQSEDFAVYYCQQYNNWPLTFGGGTKLEIK
B4: antibody No. 61 (fully human antibody, full IgG) (antibody, V domains shown)
VH: EVQLLESGGALVQPGRSLRLSCAASGFTFDDYAMHWVRQGPGKGLEWVSGTTWNSGTIGYADSVKGRFIISRDNAENSLYLQMNSLRPEDTALYYCAKDIGSGDRPDAFHLWGQGTMVTVSS
VL: ELVLTQPPSVSVAPGKTARITCGGNNIGSKSVHWYQQKPGQAPVLVVYDDSDRPSGIPERFSGSNSGNTATLTISRVEAGDEADYYCQVWDSSSDRVVFGGGTKVTVL
B5: antibody No. 81 (fully human antibody, full IgG) (antibody, V domains shown)
VH: QVQLVQSGGGVVQPGRSLRLSCAASGFTFSSFAMHWVRQAPGKGLEWVAVISFDGSNKYYADSVKGQFTISRDNSKNTLYLQMNSLRAEDTAVYYCARGDYYGSGSYYNPSPFFDYWGQGTLVTVSS
VL: not shown
B6: antibody No. 33 (fully human antibody, full IgG) (antibody, V domains shown)
VH: EVQLVESGGGVVQPGRSLRLSCAASGLTFSDYGMHWVRQAPGKGLEWVAAISYDGSNKYYADSVKGRFTISRDNSKNTVYLQMNSLRAEDTAVYYCVRDSGLYGSGWSTYQYYAMDVWGQGTTVTVSS
VL: B4 VL with P7S, R96H
B7: antibody No. 34 (fully human antibody, full IgG) (antibody, V domains shown)
VH: QVQLVQSGAEVKKPGSSVKVSCKTSGGTFSNYPLTWVRQAPGQGLEWLGGIIPIIGATNYAQKFQGRVTITADESTSTAFMELSSLRSEDTAVYYCARGRGYSGYGAAYYFDYWGQGTLVTVSS
VL: B2 VL with V3E, V100W, L108V
B8: antibody No. 37 (fully human antibody, full IgG) (antibody, V domains shown)
VH: EVQLVQSGAEVKKPGESLKISCRGSGYSFTSHWIAWVRQMPGKGLEWMGIIYPGDSDSRYSPSFQGQVTISADKSISTAYLQWSSLKASDTAIYYCARGPNLYNWFDSWGQGTLVTVSS
VL: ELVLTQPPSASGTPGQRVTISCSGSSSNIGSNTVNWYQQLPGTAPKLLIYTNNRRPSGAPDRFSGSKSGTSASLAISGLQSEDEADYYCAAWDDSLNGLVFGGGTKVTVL
B9: antibody No. 45 (fully human antibody, full IgG) (antibody, V domains shown)
VH: EVQLVQSGAEVKKPGSSVKVSCKASGGTFSSYDISWVRQAPGQGLEWMGGIIPILGIPNYAQKFQGRVTITADESTSTAYMELSSLRSEDTAVYYCARSRGYSGYGANWYFDLWGRGTLVTVSS
VL: B2 VL with L4V, D87E, V100P
B10: antibody No. 48 (fully human antibody, full IgG) (antibody, V domains shown)
VH: EVQLVQSGGGLIQPGGSLRLSCAASGFTVSSNYMSWVRQPPGKGLEWVSVIYPGGSTFFADSVQGRFTISRDNSKNTLYLQMNSLRAEDTAVYYCARSYDFLTDYTDAFDIWGQGTMVTVSS
VL: ELELTQPPSVSGAPGQRVTISCTGSSSNIGAGYDVHWYQQLPGTAPKLLIYGNSNRPSGVPDRFSGSKSGTSASLAITGLQAEDEADYYCQSYDSSLSGLWVFGGGTKLTVQ
B11: antibody No. 53 (fully human antibody, full IgG) (antibody, V domains shown)
VH: B10 VH
VL: not shown

The binders below were run against SARS-CoV-2 spike D614 (pseudovirus) (SARS-CoV-2, UniProt P0DTC2 14-1273) (assay: cell-based or functional assay).
For B1, the “IC50, pseudovirus neutralization” value was 4.34 ng/mL.

Each binder was assayed against T1, SARS-CoV-2 virus surface protein (RBD), wild type (SARS-CoV-2, UniProt P0DTC2 319-536) (assay: BLI (Octet), full IgG against RBD WT).
In the case of B1, the Kd is reported as 0.305 nM, the koff is reported as 0.000193 s⁻¹ and the kon is reported as 633000 M⁻¹ s⁻¹.
B2 was tested, and the Kd was 0.133 nM, the koff was 0.000108 s⁻¹ and the kon was 815000 M⁻¹ s⁻¹.

The binders below were run against T1, SARS-CoV-2 virus surface protein (RBD), … (assay: BLI (Octet), full IgG against SARS-CoV-2 RBD).
Protocol: The binding affinity (equilibrium dissociation constant, KD) of each fully human antibody to SARS-CoV-2 RBD was evaluated by biolayer interference (BLI) assay using Octet.
Work on B1 yielded a Kd of 0.147 nM.
B3 gave a Kd of 0.0496 nM.
For B4, the Kd was 0.0226 nM.
B5 gave a Kd of 0.0428 nM.
In the case of B2, the Kd is reported as 0.0313 nM.
B6 gave a Kd of 0.0431 nM.
B7 gave a Kd of 0.185 nM.
With B8 the Kd was 0.057 nM.
Binder B9 has a Kd of 0.0708 nM.
For B10, the Kd was 0.184 nM.
B11 was tested, and the Kd was 3.39 nM.

— patent US20250263468A1 (CELLTRION, published 2025)
